Test results published in the domain aggregation screens of Martell et al. (2025).

Assay: soluble fraction after stress (log2 fold change); higher = more stays soluble; pooled small domains, quantitative proteomics
Conditions: stress: 50 degC
Procedure, shortened: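 Each library was heated to 50°C as a stress step. The libraries, made up of small protein domains, were pooled and analysed at high throughput by quantitative proteomics. The reported value is the base-two logarithm of the fold change in each protein's soluble amount after stress, taken as a measure of aggregation propensity. The higher the value, the more protein stays in solution.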

Sequence | soluble fraction (log2)
HMLAMHVVESVGGAEQFTKLQNFAKTQNADYQKMWNDTMNSGNVLAIKTMLSGIQSDMIAVQ | -0.16
HMLAQDVIVKQDGGTILSKVLEIGTQEIAYKKWNSQDGPVYKIAKDQVLSVNYQNGEVDRFA | 0.00732
HMLAQISDEGAIGAVVARVLDAHPNEVARYHAGEEKVAKFLMGAAMRELRGKGDPAVVQRLLSEGLDARRV | 0.119
HMLARPTANELVKEMQRRAKEQRTELPPDAARDLLERSGQDQFLLGNEVDKLAALSGYTTITREMVAQAGT | 0.186
HMLAVPADFAEKLQSLRSQLASDDLDASDAFGRLQPFIKALYPAQLEALRKAVDDFDFVEATRLIDQLPQ | -0.232
HMLAYQRTYEKILEDLRNDVYPVNSLLPPEPKLEEIYHVSRTTVRRAIAQLADEGYVKVKQGYGTVVLKN | -0.339
HMLDEPPVSQTLTTYDREHMALYLRLLDSARDGADWREAVQILFGLDPTRDPLRSRHVHDTHLARARWM | -0.131
HMLDFGQEDSEAVSEIILVLGRYWMDFSHKKYPEAEGSALRHKGISHIFTVLKPYLTSATAQLIEQRLQQ | 0.00235
HMLDIQKKGENIAYIEGAGDVIPESLKQIGYHVVTIAPKDINAETLSRFDAVVVGIRAYNTVEDL | -0.244
HMLDKIRTYIDNSFTGVNETKKVKELKDELFENLKEKYNDQIQDGKTEQEAYNSVISGIGDLSELIESVK | 0.553
HMLDKKKHLEQGRKIIEDQLAKYKIQPSFDTLKKLSAYYGLNNKEQLYAQVGMGFLELENLDEILQ | ≥ 0.62
HMLDLPVRTINGRQYYYYEVRNRETVYGLSKRLGVTREEIVRYNPSMADGLKRGAILYFPVDEFSDRI | -0.281
HMLDLSDFEVVRDLYLSEQIWNVGDLIIARSKKDDTYKAWEIIRKGTNYVTGIDESHKVEKIWLHDILI | -1.4
HMLDSPHDDLNRKIVQMLQNDGRLPYKDIAEVLSVSEGTVRNRVQRMRDAGMLNIVALIDPMAI | 0.158
HMLDTPLTARELDVLYLMRQRMSAKEIAKQLGIATMTVNRHAANLYRKLGVNTRWDAVYRAEEVGILPP | -0.992
HMLDVNLIFSRPGFSLSAAFTLHAGGITVLRGDSGSGKTTLADLLSGAIAPQKGRILSDGDIWFDAASGIN | 0.22
HMLDYITLSPQELGKLLSAGNGDAAMVYLYMKATGDVTLKQAETQLGMTNQNLAWAESLLKRLGLMD | -0.556
HMLDYKSALQELLQAQRRSRPRYEVISTEGPDHERVFEVAVWLDNEELGRGKGRSKREAEHQAAQAALTQL | 0.068
HMLDYQLQVFKDTLEANRKHRGQKIVFIHGKGEGVLRRALIHALNYQYKKFTYQDASFREYGYGATQVTI | -0.103
HMLEEIDYPEEQLQLLFAWSRDHVQSTPPGLPVVDDHVWHILVRGYGATDQRTEAFALLASYAGFP | -0.0919
HMLEIDPPVDEISVSRKAFYEAAGYKVNPYTHIPPRYRKEFEEHSFVVMSWPRELPEETYRKFDRYLRDV | 0.103
HMLEIRGFTVLLSDRGIVGIIEEIIQNPGQDLLRILSPEKREILVPLHSDLITGINKKKKTITMNLPDGL | -0.465
HMLELTGEEEFVIRTLTRQGDLHINALVVETDIPINRMISLLFELEMKGVVKALVGGVYHLLG | -2.04

Sequence | soluble fraction (log2)
HMLELTVSDKMARLMAWRNRRRVNLSDQELHRIAAAPKQSPESILKMLPGFLQDSVPEIWAELTGGRP | -0.192
HMLENSLDHIEGIGPKTKDTLLTYFKSVSKIKSANPSILAELIGAAKTKILLAAFEKEKTTS | -0.017
HMLENYEGFKQKILKLTGIDLSSYKERQMRRRIDSLIHRNNYDDYDEYFKALTQNSNLYDEFINYLTI | -0.539
HMLEQEDMYGYQMIETLRERSEHSFDLKAGTLYPLLHALEQKGLITARDEASAAGRPRRYYHLTDAG | -0.144
HMLERPLFTPEQYGRFRGKEARIRLSNPVEGRKTLTGSIVEATEERIVVFVEEEEREVTVPFQWIKSGNL | -0.435
HMLESVMHSRIAEIISREGTAPAHMSMQEKIRVVHKLDADGILMMKGAVAEIADQLSVSVPTIYRYLNKPQ | -1.8
HMLETILQIGKDGVGENLVKQVNDALEARELIKGRVLDNNLELDARTAAQILAKATRSEVVQVIGTKFV | -0.0922
HMLEVTQTDVKMYTTSGTPVYAAPDLNSAIVVYLERFVNVTVTGITDNGFYRVNLNGDYYIPGPYLISSV | -0.369
HMLEYIEPRTAVQIHGIKAKPELNGKRGMVMGYAPERMRYRVRIDVGEGTGGKESEEVYLKPENVIAVK | 0.0778
HMLFKGDTREENVILEFLSKNGTTSSDAIIKQTGLSASEFNQAITMLELKGLALNNGGEKWSL | -0.0779
HMLGDAVLRQVLETIPEDPAVDYLELRRNTGMTEADLDRVLADLENLGVINKKRTVEQVLYWRT | -0.294
HMLGDAWSMLILRDAHSGFSRFDQFRKSLGIAPTMLTKRLSVLVDEGLLEKRQYSEHPPREEYVLTQAGQD | 0.0822
HMLGERIRTLRKEIGMSVTELARRVKTSPSHISEIERGEKMPSLNLLVKIAKELKTSIDYLTGLVG | -0.0679
HMLGNIERALEMLQEVAATMDPVDIRLLLSMAQVESVRGNTEAAVKLIDEALVIDPGNERIEQIRLRVL | -0.558
HMLGRPDMSPIPEGSRNNDLHAWGFGRLANHPDNKRQIEADFFERGRISGLGDAEIRASWNSILRQLGHQ | 0.14
HMLGSVRTIRQVLDDGRLIVADGGGNPSVIRRSGALAHETFANGQRVIVDPSGRLALELLPD | 0.314
HMLGVLEYYNNGQKKSERTFKGGMQIYTEWYENGQMKAEERKWIDQLGSLKFLNLLSTEWDENGNEISRME | -1.34
HMLGYGEQEREAQKYLEMHTAFQADPSLQKMYLPENQYALISKVMEMTGIKNVKSYLTPPNEL | -0.0174
HMLHVRSALMSELDGIEGIGEKRKRLLFDAFITRDAIAAATLEQLMAVKGMNRPSAEAVHKHFHG | -0.53
HMLIELKIPSEWAGKSLHTLNLRQNYNVNVIGFRDEKSGKLNTHFDPSKKLPDEGIILVVADNRTLEKF | -0.837
HMLIIDLPDFTNKKLSELQQWADANQITLKIVEKDVSSKPYDTILEQTPAKNKYEKIVKGSTMTVTVNIK | -0.562
HMLINFPNKLKRLRLANNLTQQELANILETTKQAVSSYESGKSTPSLNSLIKLSEHFNISLDSLVFD | 0.183
HMLINIKTNSAVNVRSGPGMGFEVVNTYPSGYILQAKEMQKDGGDNVWYKVKDGWLSANYTIDI | -0.198

Sequence | soluble fraction (log2)
HMLINPLDILRNFNLSLYDDSRDSASNKEIDEIFESIKTNNSHIFSTLKAYRIPLPIASLIIKKIIKITLE | -0.534
HMLISDENMLRDLVQAVLDENPKSVSDYKSGKTKAFGFLVGQTMKAVKGQADPMLVNKILTELLN | -0.0365
HMLISYRVDALANEAGLSVDTIRYYQKLGILDPPKRTGRHSEYSPDHLERLIEIRRLADAGLTLSQISEI | -2.46
HMLKAKKIPVSDLEKFKGIVAEDVVSKAKALILPRGSNLSWLSNVAKKNLIAKLKAEGIEYISVYSS | 0.134
HMLKDGPIGAYADSVIRDIIEKMERFSKEHINVDMLKIHEKIMLIDEPIIRMALLDEFHRVSHDN | -2.09
HMLKEKETRALANFTNKFFGLDISEDLKPIALSELSKFKKTHKISNLEEFINSFQYDFQNEKILSLLDIFL | -0.994
HMLKFPIGTHVGKKKPSANLSLPNKHGVVIGHGERRNAKGAIMRFYIVETTHSSRPEEWAPGITYPL | -2.5
HMLKHEEIQEYIKEQINSGTWKPKAKLPSLRDMSELFSTSIGTVLTAYSALEKKHIIYSIPRSGYYVLG | -1.11
HMLKLEDIKKDAQVKGIVDGQIVRIVTVEPIGDHALTVYYKDHQGQFAERMLFRSDELNLELATA | -0.00641
HMLKLSGEESQQLALRLREELARRRITRQGLADAAKISISTLEQVLAGRRTFTLATIVRLEEGLGIKLL | -1.89
HMLKNKSTGNINETKAILELALNHSHFKVFDNRDMTVTFKNLATQFTTMQRILVQMFFPLPAGVELIIE | ≥ 0.62
HMLKNYATPEQRAQLDMLKDKGIIGENELMQLGKYPSQDKASEVLENHADAVKMLDSDEISNRAEAIRSHD | 0.134
HMLKPQQTQRIYAMAARLGVLESGNKNDMLHTIVYRLTQKESIRSLNENEYKTVVSELAERLKL | -0.97
HMLKQLGRQEGRQEGAVDALRTVLALQIEQRFGPLDPTVQALIVAADIDALQRALSRVAVVSDLGAVFPP | -0.238
HMLKRLTVEFSAEMPKKMTSEQKEELASVLSEDPRPAYQNDENREYGLDYGEFSVKFKVKDGVLTVTSVTE | -0.0668
HMLLNLSPIETQVLRLIQQDKKVTYESIGKELTIGQTKVYKVLGHLKELNVIERIGGRTYGHWHILL | -1.03
HMLLNPFERLTERELEIADLYAKGYGNLEIANFLSIKQNTVSTYKKRIFEKLGIDNLVELIELIKNY | 0.148
HMLLQTRQRHEALAALGYFKGDVAAAWGPASEEALRAAQAAFGITVDGKWGPQTEDAIQGALQV | -0.213
HMLLREKLESVLPFISVSALAKTYFKRSPQWFYQRLNGSIVNGKPIRFNDAELKTLAGALTDIGKKISQAA | -0.322
HMLLSEPSVLKFNDDNSYEIVSGFLTEYKDKIVKIERRYKKATVKITVAGEEKEIKVSFVEDTE | -0.161
HMLLSTHVVVAKEDVQIGTRLQPAMLQVVDWPSASPLKNPLTSIEQATDRVVNMPLVKGEPISMSKLAAKG | 0.00241
HMLLTASNYFKETKGINFSELPEALQKGHSFVIKSTENGTNWNAYSTSQNIQRVIDAYFSKLDEYLEKNQ | -0.611
